Measured values reported in paper PMC2716513.

Columns and labels:
[1] = molecular target: ADAMTS13 (wild-type recombinant ADAMTS13 with a carboxy-terminal V5 tag) (UniProt Q76LX8)
[2] = molecular target: ADAMTS13 P475S mutant (UniProt Q76LX8)
[3] = molecular target: ADAMTS13 (wild-type recombinant ADAMTS13 with a carboxy-terminal V5 tag) (UniProt Q76LX8); remark: listed apart in the source

reactivity of the mAb Wh2-11-1 to intracellular ADAMTS13 (flow cytometry, permeabilized HEK293 cells) after incubation with VWF at 37°C, fold increase [1]: > 10 fold | fluorescence intensity of the mAb Wh-2-11-1 on the P475S mutant ADAMTS13 (flow cytometry) on addition of VWF, fold increase (data not given) [2]: 1.9 fold | fluorescence intensity of the mAb Wh-2-11-1 on wild-type ADAMTS13 (flow cytometry) on addition of VWF, fold increase (data not given) [3]: 3.5 fold
Substance: von Willebrand Factor (VWF) (from UniProt P04275 764-2813) (natural protein)
